{
  "source": "the DeepSol protein solubility set",
  "data": [
    {"assay": "soluble on expression in E. coli; label from the status in PepcDB or PDB records", "values": [
      {"sequence": "MTAGPQAHGHAPQTAGLAALEARLRQDLAWLELPAKPWTLPHALDGQPVLDVAIIGGGMAGLAAATALKHLGIGAVVFDRAPEGYEGPWATTARMETLRSPKQLTGPALGLPALTFRAWFEAQFGADAWETLDKIPRLQWMDYLRWYRRVLQLEVRNAHHVRTVQPRADGAVELTLDTPDAAGQRVLARRVVLATGRDGLGGPAVPAFAHRLPHRWWAHSSDAMDYGALAGKRVGVIGAGASAMDSAATALEAGAASVDLLIRRPDLPRINKGKGAGSPGLVHGHQHLPDAWKWRIRHYINAEQVPPPRGSTLRVSRHPNARFNLGCPVLGVDEHNGALHVTTPKGVFRLDFLIFSTGFRLDWAARPEFSALAPHVRLWRDRYTPRPGEEDAELSDSPDLGPAFELREKTPGQLPGLSRVHCFCYPASLTHGSVSGDIPAISEGARRLAQGIAGLLYQEDIEGHYAAMQAYAEPEIFGDEWTPAPPPQSEPAAAAASPAREAARLEHHHHHH", "soluble on expression in E. coli": "not soluble"},
      {"sequence": "MTKEEFIKQKEQRKTFLVIAEEEGDSITPISLYRRMKGKKKFLLESSQLHQDKGRYSYLGCNPYGEVKSVGTEVERTIYGRAEKLQSNVLQVLEEIIAPSQVDSPFPFCGGAVGYIGYDVIRQYENIGADLHDPLNIPEVHLLLYREFIVYDHLRQKLSFVYVCREDDSADYEEVYERLRVYKEEVLQGEEAEVTEIRSTLSFTSSITEREFCVMVETAKEHIGAGDIFQVVLSQRLQSECIGDPFALYRKLRIANPSPYMFYIDFQDYVVLGSSPESLLSVREDKVMTNPIAGTRPRGKTKEEDTEIEKELLENEKERAEHMMLVDLGRNDIGRVSEIGSVTIDKYMKVEKYSHVMHIVSEVYGTLRKQMSGFDALAYCLPAGTVSGAPKIRAMEIINELENEKRNVYAGAVGYVSFSGNLDMALAIRTMVVKDEKAYVQAGAGIVYDSDPVAEYEETLNKARALLEVMK", "soluble on expression in E. coli": "not soluble"},
      {"sequence": "GRWILKNDVKNRSVYIKGFPTDATLDDIKEWLEDKGQVLNIQMRRTLHKAFKGSIFVVFDSIESAKKFVETPGQKYKETDLLILFKDDYFAKKNEERKQNKVE", "soluble on expression in E. coli": "soluble"},
      {"sequence": "MVAVYDVEFPLPLNTQPMEARAAGVLPRDDGPWQYEPKWDGFRCLAFKAGKAVDLRAKSGKPLGRYFPELMAALSALAATEFVIDGEIIIEIEGRASFDALQMRLHPAESRIRKLSRETPARLVVFDMLVAPEGRPRMELPLRDRRAEAEDLVAKAKTKTLRLSPATTSLATADNWLKGAGSGSIDGVVAKLLNGPYRPGERAMVKVKRLRTADCVVGGFRYLNGKRQVGSLLLGLYNGDGLLDHVGFTSTIANDERAVLTEKLENLRGGSGFTGKAPGGPSRWSTERSGEWEPVRPELVVEVRFDHVTGDRFRHGTKLVRWRPDKAPLQCTFEQLELEHHHHHH", "soluble on expression in E. coli": "soluble"},
      {"sequence": "MGSDKIHHHHHHMEKVIYIVWRDPSTKPETFAHDLRTKLAQQLLQLGARGVQINVQDEDVAPAAALRQVNTLPQMDGLVSVWVDSAITSLRRPFDDAVLAATGRMAGYLVTESQPIRNTRHPARAGERTPGFSQLAFLKRPPRLTHEAWLDTWHNRHTQVAIDTQDTFLYVQNVVVRALTYGAPPLDAVVEEGFPEAAMTDPQAFFDAPGDEAKYQRNLAAMMESCQRFIDFDKIDVVASSQYIVRPPAA", "soluble on expression in E. coli": "not soluble"},
      {"sequence": "GMKDTDETAFLNSLFMDFTSENELELFLKSLDEVWSEDLYSRLSAAGLIRHVISKVWNKEQHRISMVFEYDSKEGYQKCQEIIDKEFGITLKEKLKKFVFKIHNNRGVVVSEFIRST", "soluble on expression in E. coli": "soluble"},
      {"sequence": "GPGSMLPTVPCFGSQWCIESVMDLSGLVPTSKELTEGQREHIRDLQYEIDEIWNRRGDYKIDSSAWEQMPLFMENITEEDLQRNADCAALASIAYDDVPPEEVAESRKQHGNRAIQLALDPKQVNKENLARATVHCYTEGLAAKCKDPVLNSQLYANRSLAQYIIHNYGHGLEDAQRAIILDPDYYKAYYRAARCAERIGKYDLALDLLAKGRRTNPAPVGRALEDFVDIERVCREGKERAESKKKKENLSTRVKAAQTSSTLRCVTSSGVRCSPRAEVSSEQMGVYGHHEPYFDSEGLLHVPILFMYDEYQQTDFMQDVSCDVCVGELLDELMPFPWDDRGRYQRIDDILVVYKIDGGVKDPKYYEVDLSLPLMEVFRSESYQMPALLPVLHIICKHSDMLTEWDVQMLR", "soluble on expression in E. coli": "soluble"},
      {"sequence": "MRNFKKPDVLVSKCLEHGRCRYDGQMISSDFVKSTKKYFNYVPVCPEVEIGLSIPRNSLKIVFENEKFEFVQNITNNNYTSKITQFSSDFLDSIENIDGAVLKHKSPSCGIKNVKVYTAKGNPTNQKTEGFFAKEVLYRYSNIAIEEESRLRNKRIKDHFLTKLYTIKDFKEVKESESIKNLIEFHTNNKFLFMAYNQKQKDILGNIVGNHNKNFDKIIKLYEKHLQLLLKRPSAIGSNINVLMHIFGYMSNKISKDEKLLFIDSLQRYHDELDCLCVPIILLKSWVIRFNVDYLKKQTYFEPFPQELADNSEMFKRDYWND", "soluble on expression in E. coli": "not soluble"},
      {"sequence": "MLSPLAKANLCLNLFGFFKVPLIWACRPKILSLNDQAVEVRIPLKRRNKNHLNSMYFGVLAVGADVAGGYMAMHKANQRGKSVSLAFKSVRGEFHKRPEAAVHFHCVEGEKIDRMLDETARTGERVNQEVHIIATCPTLHGDEPMAEFWLTLSLKIVKLEHHHHHH", "soluble on expression in E. coli": "soluble"},
      {"sequence": "LRIYSADNLLIGEFGEERRDFIKIEEVPKSLKQAILAAEDDRFYQHYGVDYIGVLRAIYSNFKAGGAHQGASTITMQVARNFFLTKEKTLTRKFSEALLAFKIEHSLEKDQILELYINQIYLGQRSYGFSSAAQSYFGKQLTDINLAEAAMLAGLPKAPSRFNPIVNL", "soluble on expression in E. coli": "not soluble"},
      {"sequence": "HGDGPGNAVQEIMIPASKAGLVIGKGGETIKQLQERAGVKMVMIQDGPQNTGADKPLRITGDPYKVQQAKEMVLELIRDQG", "soluble on expression in E. coli": "soluble"},
      {"sequence": "MEIKEVLPCIADPKKLRVIGRVDGNFPAVMPYLARLIPNASYNEKRGWISFKKGQRIITIHEDGFVAMTQIKDEDEAKSILGEIEQKAQEAWEKRNKIDLSKPLEKTVVSPFDVYNYLPKTNCKRCGEQTCMAFAVKLLNGEVDIKACKPLFEDKKYEGLRETLIGMLVAAGYDLEL", "soluble on expression in E. coli": "soluble"},
      {"sequence": "MGSDKIHHHHHHMKFTPELESGVLIKRYKRFLADIMLPNGQEITIHCPNTGSMKNCLFPGEKVWFSTSDNPKRKYAHTWELMQTDQQHYIGINTGRANALAEEAINRQVITELLGYEHLKREVKYGSENSRIDILLTSQNRPECYIEVKSCTLLEDQMGYFPDAVTTRGQKHLRELIHMVELGHRAVLLFVVQHSAITSVKPARHIDPHYADLLEQAVANGVEVLAYKTALSPQGSLITSACKVML", "soluble on expression in E. coli": "not soluble"},
      {"sequence": "MGSDKIHHHHHHMRDSVFKLSYFLSANEKFHIARVNITSSQDLSLHSHDYAEILWVEKGTGIHHVNGHQFRLSPGDLIMVRPKDRHTFSSSGKGIVIVNVAFPVETLDYFRQRYFEWSNLYFWTTGMFPFQMRLSRDIVKRLSSRAEEAMKYGRSNIQLDSLLLFIFRQITANEKVEDSSEIPVWLFNAIQKFNSPEFFIQGIAGFVTLCDRNIDYVNRIVKLHFHKSLTDLINEFKMQYATTQLSITSMPIKEICTNCGFRNLGHFYKIFRSVYNQTPYEYRRINQLIV", "soluble on expression in E. coli": "not soluble"},
      {"sequence": "MRGSHHHHHHTDPALRAQTQVLFEHPLNEKMRTWLRIEFLIQQLTVNLPIVDHAGALHFFRNVSELLDVFERGEVRTELLKELDRQQRKLQTWIGVPGVDQSRIEALIQQLKAAGSVLISAPRIGQFLREDRLIALVRQRLSIPGGCCSFDLPTLHIWLHLPQAQRDSQVETWIASLNPLTQALTMVLDLIRQSAPFRKQTSLNGFYQDNGGDADLLRLNLSLDSQLYPQISGHKSRFAIRFMPLDTENGQVPERLDFELACCGLCGR", "soluble on expression in E. coli": "soluble"},
      {"sequence": "PTDILEHVLLPVATEDDALATVTALEPYEPEQVTALHVVEKGEGVPDKTPVAQSEEVAAESYAAVRTVFPDADDHTAYSRNVVEAIFHAADEVGASAIAYRSRGGGRLMQFLSGDLSLKLVTNAAIPVIALPRADS", "soluble on expression in E. coli": "not soluble"},
      {"sequence": "MGSDKIHHHHHHMSQTLLALYGLKWNPFSADLPIAAVSVPPKVEDFCWRIEHALVREGGFALIQGDPGTGKSVILRLLAERLSRLPDLTVGAIHHPQSNLADFYRELGDIFAVSLKPSNRWGGFKALRERWLAHLEATRRRPVLLIDEAQEMNAPVLCELRLLSSARFDSQSLLSVLLAGDARLTEKLRREELVPLGSRIRVRLHTESASRNELLGCLEHLMTEAGNAGLMTAGLCQTLCDHAMGNYRVLTQMAAELLAAATQRQLDQLDEKLFLELYGPAQQPARRKAAH", "soluble on expression in E. coli": "not soluble"},
      {"sequence": "MPAFDKPKVELHVHLDGSIKPETILYYGRRRGIALPANTAEGLLNVIGMDKPLTLPDFLAKFDYYMPAIAGCREAIKRIAYEFVEMKAKEGVVYVEVRYSPHLLANSKVEPIPWNQAEGDLTPDEVVALVGQGLQEGERDFGVKARSILCCMRHQPNWSPKVVELCKKYQQQTVVAIDLAGDETIPGSSLLPGHVQAYQEAVKSGIHRTVHAGEVGSAEVVKEAVDILKTERLGHGYHTLEDQALYNRLRQENMHFEICPWSSYLTGAWKPDTEHAVIRLKNDQANYSLNTDDPLIFKSTLDTDYQMTKRDMGFTEEEFKRLNINAAKSSFLPEDEKRELLDLLYKAYGMPPSASAGQNLAENLYFQ", "soluble on expression in E. coli": "soluble"},
      {"sequence": "MGSDKIHHHHHHMNFISRVTKKNTYMKKAVIYSRVSTDEQAQLGYSLRDQERCLRLFCEKNDLEVVHHYQDDHSAKDFNRPQFQQFLRDVKSKRIKVDYFVCLKQDRFSRDTRLALNSVHDLEKLGVTVKYVENNLDLSIAENIIPYLLNFGIAELENKRLSERTKKGMRQAKREGRWVGTPPRGYKSIPDSTGKKILTPNQYSTLIIEAFTEFAQGNHSTESLRKVLYARGLKVSENQFPNILKNPIYCGKIRIDEWKEEKEEIVIGIHEPLISVELFEKVQRILNGTSTPNKPHKKLDPELPLRPFLKCSCGSNLTGSRSRSRNGNYHYYYHCQNGCSVRFPAKVANKKFETFLSMFSFSEDVILLYKEVLKDEFSKQVKERLELSAADAALKLKTQNLLDNADEKYIANELDNTTYQRVKEKYQKILDTITNKELDSKVVKSEFEKYLKGVTLLDSLDVKYKEGTIEFKNALLGSIFMGKLEFSENEYRTTQINSVVENLLLNFNELASYKKEKATTNSGFLQQAPPLGLEPRTP", "soluble on expression in E. coli": "not soluble"},
      {"sequence": "MSLEREVCVNQLLKFLDSIRGRLSFRMVERLFSRGLDENPIFEAISKSGALAKNVIIILGGRGCGKTLVMRYIKHYFEPEGWDYKYFSGDQFKEADAQELMKIISETRDLLENSEDYKVIVGIDDVVEASEAIRDTIKNQLVPLVVDYAGRIKLVISGQSERVVGTTTVLHILEDTLGRSPKAEMLFGEYPGEGHHHHHH", "soluble on expression in E. coli": "soluble"},
      {"sequence": "MHVTRNVGKSQKLHHVSLKQVLSYLEPHEQEDTKPVTSTKNKGFLLFNSHQNTLNTHMHGAMNSPCIDFVMFSRGQHDEDNMSRRPPWKRERSMSTQHHHLNLSPNEDEELANCLVLLSNSGDAHGGDQHKQHGHGKGKTVKKQKTAQVFQCKACKKVFTSHQALGGHRASHKKVKGCFASQDKEEEEEEEYKEDDDDNDEDEDEEEDEEDKSTAHIARKRSNAHECTICHRVFSSGQALGGHKRCHWLTPSNYLRMTSLHDHHHSVGRPQPLDQPSLDLNLACQEYSVDPTAMSVGMIERDGGGNNHNATSSSWLKLASGDWS", "soluble on expression in E. coli": "not soluble"}
    ]}
  ]
}
